Among the data in patent EP0571387B1 are inhibition of HGF-induced [3H]-thymidine incorporation in B5/589 cells (fold molar excess over HGF) values, retold here.

The target in this test is c-met protooncogene product (HGF receptor) on B5/589 human mammary epithelial cells (human) (UniProt P08581). The test can be described thus: cell-based or functional assay.
Chain of UniProt P08581 (P08581 25-1390): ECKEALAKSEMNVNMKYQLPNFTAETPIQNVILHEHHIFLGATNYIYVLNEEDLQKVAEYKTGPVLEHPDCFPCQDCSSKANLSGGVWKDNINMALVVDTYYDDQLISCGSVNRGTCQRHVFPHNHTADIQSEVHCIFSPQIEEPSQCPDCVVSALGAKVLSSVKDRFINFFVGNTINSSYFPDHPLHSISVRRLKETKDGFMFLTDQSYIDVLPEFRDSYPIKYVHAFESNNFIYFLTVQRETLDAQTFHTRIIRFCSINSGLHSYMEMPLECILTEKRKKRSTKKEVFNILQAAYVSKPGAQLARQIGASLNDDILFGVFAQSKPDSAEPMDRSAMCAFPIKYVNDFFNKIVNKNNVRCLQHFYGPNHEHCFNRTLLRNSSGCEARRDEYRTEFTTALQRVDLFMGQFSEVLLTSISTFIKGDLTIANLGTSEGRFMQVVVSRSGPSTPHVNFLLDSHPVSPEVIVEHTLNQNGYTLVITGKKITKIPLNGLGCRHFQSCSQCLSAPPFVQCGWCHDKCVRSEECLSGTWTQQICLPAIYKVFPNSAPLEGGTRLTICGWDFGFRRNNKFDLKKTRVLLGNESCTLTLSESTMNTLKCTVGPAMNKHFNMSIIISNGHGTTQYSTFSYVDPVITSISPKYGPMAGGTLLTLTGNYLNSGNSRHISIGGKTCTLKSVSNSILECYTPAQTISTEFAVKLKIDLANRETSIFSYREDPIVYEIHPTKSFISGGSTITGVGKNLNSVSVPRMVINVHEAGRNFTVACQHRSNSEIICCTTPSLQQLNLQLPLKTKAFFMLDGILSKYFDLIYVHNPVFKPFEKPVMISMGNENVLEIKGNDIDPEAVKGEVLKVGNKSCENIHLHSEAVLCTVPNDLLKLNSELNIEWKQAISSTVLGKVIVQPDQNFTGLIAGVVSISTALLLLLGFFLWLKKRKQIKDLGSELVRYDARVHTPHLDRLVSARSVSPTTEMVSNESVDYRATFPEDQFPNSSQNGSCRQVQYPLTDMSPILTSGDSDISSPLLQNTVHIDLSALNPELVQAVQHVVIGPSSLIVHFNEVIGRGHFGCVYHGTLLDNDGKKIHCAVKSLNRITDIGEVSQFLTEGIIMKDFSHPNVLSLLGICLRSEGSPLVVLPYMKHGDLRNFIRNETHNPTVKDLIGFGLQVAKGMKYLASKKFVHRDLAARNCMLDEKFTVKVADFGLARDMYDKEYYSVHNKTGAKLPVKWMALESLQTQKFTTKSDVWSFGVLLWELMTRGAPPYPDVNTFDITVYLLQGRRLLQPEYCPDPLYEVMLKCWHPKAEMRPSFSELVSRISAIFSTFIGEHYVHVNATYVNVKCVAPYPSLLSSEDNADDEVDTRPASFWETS

In turn, “HGF/NK2 (34 kd truncated HGF variant, naturally occurring, purified from conditioned medium of SK-LMS-1 cells) (ligand)” gave an inhibition of HGF-induced [3H]-thymidine incorporation in B5/589 cells (fold molar excess over HGF) of 10 to 20.
